Here are results for one protein from publication PMC2914671, “A VLP-based vaccine targeting domain III of the West Nile virus E protein protects from lethal infection in mice” (Virology Journal, 2010).

The series concerns the molecule itself. Kind of series: transmission electron microscopy; purified AP205 VLPs adsorbed onto carbon-Formvar-coated grids, stained with 2% phosphotungstic acid.

B1: AP205 virus-like particles (recombinantly expressed coat protein of bacteriophage AP205) (natural protein)
chain: MANKPMQPITSTANKIVWSDPTRLSTTFSASLLRQRVKVGIAELNNVSGQYVSVYKRPAPKPEGCADACVIMPNENQSIRTVISGSAENLATLKAEWETHKRNVDTLFASGNAGLGFLDPTAAIVSSDTTA
notes: coat protein of the Acinetobacter bacteriophage AP205; monomer 14.0 kDa; The VLPs hold about 25-30 ug of host cell RNA per 100 ug of coat protein; also called AP205 VLPs; AP205 VLP carrier; source: E. coli, purified from cleared lysates (Fractogel TMAE anion exchange, hydroxyapatite); copies: 180
As for B1, the binding result was “binds”.
